Laboratory results reported in the supplement of paper PMC6757056.
± gives the standard deviation of the averaged measurements.

B1: library; a variant is named by its letters at N, in order (parent)
chain: GCUGUCACCGGUGCUUGGUACGUUAUAUUCAGCCGGUCUGAUGAGUCUNNNNNNAGACGAAACAGC

Tests used:
[1] = variants of: B1; test: normalized RNA/DNA level without ligand (relative to sTRSVctl = 100) (log10 (% of sTRSVctl)); HEK293T overexpressing SLC46A1; higher = less ribozyme self-cleavage, higher mRNA level; details: without (6R,S)-folinic acid; ligand present: no
How it was run: (§1)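 For each 6-well well, 4 µg of library plasmid encoding mCherry-linked ribozyme switches, or eGFP-linked ones in some ligand experiments, was transfected into HEK293T. Any ligand was added 1 h before transfection, and RNA was extracted with EDTA 72 h after it, then reverse-transcribed, amplified, barcoded and sequenced. RNA level was obtained by dividing RNA reads by DNA reads, normalizing to a spiked-in non-cleaving sequence or to the top sequences, then scaling and log-transforming. The top set was 25 sequences, scaling was ×100 with log10, and ≥100 DNA reads were required.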

[2] = variants of: B1; test: normalized RNA/DNA level with ligand (relative to sTRSVctl = 100) (log10 (% of sTRSVctl)); HEK293T overexpressing SLC46A1; ligand concentration (+) RNA-Seq: 6 mM; higher = less ribozyme self-cleavage, higher mRNA level; details: with (6R,S)-folinic acid; ligand present: yes
How it was run: as §1

Variant | normalized RNA/DNA level without ligand (log10) [1] | normalized RNA/DNA level with ligand (log10) [2]
GCUGUCACCGGUGCUUGGUACGUUAUAUUCAGCCGGUCUGAUGAGUCUCUAGAAAGACGAAACAGC [CUAGAA] | 1.992 ± 0.016 | 2.018 ± 0.016
GCUGUCACCGGUGCUUGGUACGUUAUAUUCAGCCGGUCUGAUGAGUCUCUAGAGAGACGAAACAGC [CUAGAG] | 1.92 ± 0.035 | 2.02 ± 0.042
GCUGUCACCGGUGCUUGGUACGUUAUAUUCAGCCGGUCUGAUGAGUCUCUAGACAGACGAAACAGC [CUAGAC] | 1.98 ± 0.017 | 1.986 ± 0.015
GCUGUCACCGGUGCUUGGUACGUUAUAUUCAGCCGGUCUGAUGAGUCUGUACUGAGACGAAACAGC [GUACUG] | 2.002 ± 0.013 | 2.015 ± 0.017
GCUGUCACCGGUGCUUGGUACGUUAUAUUCAGCCGGUCUGAUGAGUCUCUAGGGAGACGAAACAGC [CUAGGG] | 1.882 ± 0.017 | 2.02 ± 0.028
GCUGUCACCGGUGCUUGGUACGUUAUAUUCAGCCGGUCUGAUGAGUCUCUAGGAAGACGAAACAGC [CUAGGA] | 2.016 ± 0.0053 | 2.01 ± 0.047
GCUGUCACCGGUGCUUGGUACGUUAUAUUCAGCCGGUCUGAUGAGUCUUUAGCCAGACGAAACAGC [UUAGCC] | 2.013 ± 0.0037 | 1.99 ± 0.026
GCUGUCACCGGUGCUUGGUACGUUAUAUUCAGCCGGUCUGAUGAGUCUUUAGCGAGACGAAACAGC [UUAGCG] | 1.896 ± 0.0052 | 1.98 ± 0.032
GCUGUCACCGGUGCUUGGUACGUUAUAUUCAGCCGGUCUGAUGAGUCUUUAGCUAGACGAAACAGC [UUAGCU] | 2.007 ± 0.0056 | 2.02 ± 0.047
GCUGUCACCGGUGCUUGGUACGUUAUAUUCAGCCGGUCUGAUGAGUCUAUAGGAAGACGAAACAGC [AUAGGA] | 1.91 ± 0.022 | 1.99 ± 0.053
GCUGUCACCGGUGCUUGGUACGUUAUAUUCAGCCGGUCUGAUGAGUCUCUACUUAGACGAAACAGC [CUACUU] | 2.03 ± 0.022 | 2.02 ± 0.039
GCUGUCACCGGUGCUUGGUACGUUAUAUUCAGCCGGUCUGAUGAGUCUCUACUGAGACGAAACAGC [CUACUG] | 2.0146 ± 0.00058 | 2.04 ± 0.024
GCUGUCACCGGUGCUUGGUACGUUAUAUUCAGCCGGUCUGAUGAGUCUCUACUCAGACGAAACAGC [CUACUC] | 2.05 ± 0.021 | 2.03 ± 0.039
GCUGUCACCGGUGCUUGGUACGUUAUAUUCAGCCGGUCUGAUGAGUCUGUAGACAGACGAAACAGC [GUAGAC] | 1.911 ± 0.0045 | 2.003 ± 0.01
GCUGUCACCGGUGCUUGGUACGUUAUAUUCAGCCGGUCUGAUGAGUCUCUAGUCAGACGAAACAGC [CUAGUC] | 2.081 ± 0.0096 | 2.025 ± 0.015
GCUGUCACCGGUGCUUGGUACGUUAUAUUCAGCCGGUCUGAUGAGUCUCUAGUAAGACGAAACAGC [CUAGUA] | 1.996 ± 0.015 | 2 ± 0.034
GCUGUCACCGGUGCUUGGUACGUUAUAUUCAGCCGGUCUGAUGAGUCUGUAGUAAGACGAAACAGC [GUAGUA] | 1.9662 ± 0.0006 | 1.98 ± 0.025
GCUGUCACCGGUGCUUGGUACGUUAUAUUCAGCCGGUCUGAUGAGUCUGUAGUCAGACGAAACAGC [GUAGUC] | 2.038 ± 0.0078 | 2.03 ± 0.032
GCUGUCACCGGUGCUUGGUACGUUAUAUUCAGCCGGUCUGAUGAGUCUUUAGAUAGACGAAACAGC [UUAGAU] | 1.946 ± 0.012 | 1.99 ± 0.021
GCUGUCACCGGUGCUUGGUACGUUAUAUUCAGCCGGUCUGAUGAGUCUUUAGACAGACGAAACAGC [UUAGAC] | 2 ± 0.01 | 2.01 ± 0.041
